Assays:
[1] = molecular target: NY-ESO-1 peptide … presented on peptide-pulsed T2 cells (UniProt P61769); assay: cell-based or functional assay
[2] = molecular target: g9-154 (gp100) peptide … presented on peptide-pulsed T2 cells (UniProt P61769); assay: cell-based or functional assay

| Substance | IFN-γ secreted by transfected CD4+ T cells (Patient) with peptide-pulsed T2 cells [1] [pg/mL] | IFN-γ secreted by transfected CD8+ T cells (Patient) with peptide-pulsed T2 cells [1] [pg/mL] | IFN-γ secreted by transfected CD4+ T cells (Patient) with peptide-pulsed T2 cells [2] [pg/mL] | IFN-γ secreted by transfected CD8+ T cells (Patient) with peptide-pulsed T2 cells [2] [pg/mL] |
| --- | --- | --- | --- | --- |
| 1G4 mut1 (G70A): WT 1G4 alpha chain + beta chain G70A (TCR) | 6380 | 10200 | < 30 | < 30 |
| 1G4 mut2 (A71I): WT 1G4 alpha chain + beta chain A71I (TCR) | 8970 | 10100 | < 30 | < 30 |
| 1G4 mut3 (G70A/A71I): WT 1G4 alpha chain + beta chain G70A/A71I (TCR) | 10700 | 8860 | < 30 | < 30 |
